Key:
Experiment in all cases: pull-down
[1] = molecular target: T1, HDA19 (HDAC catalytic subunit) (Arabidopsis thaliana, UniProt O22446 1-501)
T1 sequence (looked up): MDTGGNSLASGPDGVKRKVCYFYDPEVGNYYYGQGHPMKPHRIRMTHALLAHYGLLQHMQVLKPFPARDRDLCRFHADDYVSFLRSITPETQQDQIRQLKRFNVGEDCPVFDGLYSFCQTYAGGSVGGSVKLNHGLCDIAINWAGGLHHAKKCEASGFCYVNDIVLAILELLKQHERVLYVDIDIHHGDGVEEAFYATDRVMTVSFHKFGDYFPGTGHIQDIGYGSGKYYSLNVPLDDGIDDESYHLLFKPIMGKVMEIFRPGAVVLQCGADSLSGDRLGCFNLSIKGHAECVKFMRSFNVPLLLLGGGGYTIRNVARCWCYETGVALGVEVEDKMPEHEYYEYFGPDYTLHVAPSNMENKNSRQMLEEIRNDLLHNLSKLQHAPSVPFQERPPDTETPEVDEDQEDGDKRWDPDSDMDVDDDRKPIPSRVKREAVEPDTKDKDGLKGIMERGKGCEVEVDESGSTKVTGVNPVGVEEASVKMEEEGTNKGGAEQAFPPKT

[2] = molecular target: T2, BRM-3 (C-terminal domain of the BAS-type SWI/SNF chromatin remodeler BRM, 1,596-2,193 aa) (Arabidopsis thaliana, UniProt Q6EVK6 1596-2193)
T2 sequence (looked up): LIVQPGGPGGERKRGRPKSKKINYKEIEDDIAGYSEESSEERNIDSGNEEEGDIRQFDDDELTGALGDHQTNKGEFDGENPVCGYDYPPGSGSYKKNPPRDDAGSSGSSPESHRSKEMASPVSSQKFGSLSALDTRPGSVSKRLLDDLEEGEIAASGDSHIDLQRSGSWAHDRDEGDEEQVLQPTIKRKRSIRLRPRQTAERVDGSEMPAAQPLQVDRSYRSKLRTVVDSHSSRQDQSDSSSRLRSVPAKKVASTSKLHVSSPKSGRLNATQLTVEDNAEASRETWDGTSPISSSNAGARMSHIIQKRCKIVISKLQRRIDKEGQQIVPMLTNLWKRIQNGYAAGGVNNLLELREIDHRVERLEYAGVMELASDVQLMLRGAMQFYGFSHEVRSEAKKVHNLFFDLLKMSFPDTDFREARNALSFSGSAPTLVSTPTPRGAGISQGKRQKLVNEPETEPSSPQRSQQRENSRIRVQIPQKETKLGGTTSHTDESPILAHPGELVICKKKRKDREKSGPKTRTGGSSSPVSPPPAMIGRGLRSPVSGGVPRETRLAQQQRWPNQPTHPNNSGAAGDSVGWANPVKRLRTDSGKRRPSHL

[3] = molecular target: T3, VAL1 (recombinant, pull-down) (Arabidopsis thaliana, UniProt Q8W4L5 1-790)
T3 sequence (looked up): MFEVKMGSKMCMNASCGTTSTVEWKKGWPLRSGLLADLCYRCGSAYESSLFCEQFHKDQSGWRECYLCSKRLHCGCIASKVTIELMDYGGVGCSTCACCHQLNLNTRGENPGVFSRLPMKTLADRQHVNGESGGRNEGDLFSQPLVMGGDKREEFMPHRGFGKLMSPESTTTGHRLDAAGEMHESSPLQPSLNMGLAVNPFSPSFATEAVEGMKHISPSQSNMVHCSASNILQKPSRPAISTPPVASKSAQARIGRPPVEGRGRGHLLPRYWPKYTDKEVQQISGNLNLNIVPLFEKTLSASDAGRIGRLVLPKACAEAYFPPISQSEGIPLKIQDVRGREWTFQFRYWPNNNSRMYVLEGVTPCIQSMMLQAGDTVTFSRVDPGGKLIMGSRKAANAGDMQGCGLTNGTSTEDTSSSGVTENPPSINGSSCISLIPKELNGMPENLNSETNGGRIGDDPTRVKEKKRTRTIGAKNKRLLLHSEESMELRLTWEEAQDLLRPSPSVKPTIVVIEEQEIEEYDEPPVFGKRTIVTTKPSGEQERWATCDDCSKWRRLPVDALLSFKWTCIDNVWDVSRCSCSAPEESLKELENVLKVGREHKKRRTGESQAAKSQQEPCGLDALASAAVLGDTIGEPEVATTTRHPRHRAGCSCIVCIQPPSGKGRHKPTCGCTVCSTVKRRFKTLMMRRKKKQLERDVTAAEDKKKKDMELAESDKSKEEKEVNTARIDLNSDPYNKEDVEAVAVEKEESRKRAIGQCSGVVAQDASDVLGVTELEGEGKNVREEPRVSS

[4] = molecular target: T4, UBP5 (H2A deubiquitinase, subunit of the PEAT complex) (Arabidopsis thaliana, UniProt O22207 1-924)
T4 sequence (looked up): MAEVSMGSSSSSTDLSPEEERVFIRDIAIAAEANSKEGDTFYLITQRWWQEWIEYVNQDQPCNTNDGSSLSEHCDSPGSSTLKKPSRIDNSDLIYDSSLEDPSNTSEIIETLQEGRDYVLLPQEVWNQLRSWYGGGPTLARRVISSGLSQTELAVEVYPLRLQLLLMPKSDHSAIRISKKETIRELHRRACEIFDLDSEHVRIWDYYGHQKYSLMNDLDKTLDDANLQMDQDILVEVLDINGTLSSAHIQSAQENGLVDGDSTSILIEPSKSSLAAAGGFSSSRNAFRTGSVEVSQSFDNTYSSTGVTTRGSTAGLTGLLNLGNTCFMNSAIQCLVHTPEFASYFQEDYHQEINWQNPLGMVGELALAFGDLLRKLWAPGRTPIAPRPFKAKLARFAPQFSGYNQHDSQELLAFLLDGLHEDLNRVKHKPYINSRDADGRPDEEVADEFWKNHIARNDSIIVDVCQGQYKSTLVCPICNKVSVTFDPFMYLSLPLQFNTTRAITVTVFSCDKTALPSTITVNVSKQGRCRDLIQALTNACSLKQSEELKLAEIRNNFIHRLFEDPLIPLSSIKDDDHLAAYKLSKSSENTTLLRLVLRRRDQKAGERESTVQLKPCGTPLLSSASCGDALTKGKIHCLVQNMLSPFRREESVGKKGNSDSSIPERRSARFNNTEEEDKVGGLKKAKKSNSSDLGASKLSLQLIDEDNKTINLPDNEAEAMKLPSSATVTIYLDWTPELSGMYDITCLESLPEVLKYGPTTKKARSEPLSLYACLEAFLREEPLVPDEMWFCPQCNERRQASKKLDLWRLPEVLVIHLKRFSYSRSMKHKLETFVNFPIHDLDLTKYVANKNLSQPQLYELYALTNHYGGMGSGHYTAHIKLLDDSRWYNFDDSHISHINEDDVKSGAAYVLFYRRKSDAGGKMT

[5] = molecular target: ZF2 (recombinant, pull-down) (Arabidopsis thaliana, UniProt Q9SSW2 1-273)
Chain of ZF2 (recombinant, pull-down) (Q9SSW2 whole entry): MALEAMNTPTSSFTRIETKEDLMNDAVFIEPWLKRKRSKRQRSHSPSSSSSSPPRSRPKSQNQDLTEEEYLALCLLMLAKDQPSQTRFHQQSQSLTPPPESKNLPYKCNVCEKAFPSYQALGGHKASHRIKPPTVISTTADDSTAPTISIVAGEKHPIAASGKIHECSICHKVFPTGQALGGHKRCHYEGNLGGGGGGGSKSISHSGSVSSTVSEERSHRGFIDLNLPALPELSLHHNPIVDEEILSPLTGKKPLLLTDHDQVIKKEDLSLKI

[6] = molecular target: T5, RING1A (recombinant, pull-down) (Arabidopsis thaliana, UniProt Q9FKW0 1-522)
T5 sequence (looked up): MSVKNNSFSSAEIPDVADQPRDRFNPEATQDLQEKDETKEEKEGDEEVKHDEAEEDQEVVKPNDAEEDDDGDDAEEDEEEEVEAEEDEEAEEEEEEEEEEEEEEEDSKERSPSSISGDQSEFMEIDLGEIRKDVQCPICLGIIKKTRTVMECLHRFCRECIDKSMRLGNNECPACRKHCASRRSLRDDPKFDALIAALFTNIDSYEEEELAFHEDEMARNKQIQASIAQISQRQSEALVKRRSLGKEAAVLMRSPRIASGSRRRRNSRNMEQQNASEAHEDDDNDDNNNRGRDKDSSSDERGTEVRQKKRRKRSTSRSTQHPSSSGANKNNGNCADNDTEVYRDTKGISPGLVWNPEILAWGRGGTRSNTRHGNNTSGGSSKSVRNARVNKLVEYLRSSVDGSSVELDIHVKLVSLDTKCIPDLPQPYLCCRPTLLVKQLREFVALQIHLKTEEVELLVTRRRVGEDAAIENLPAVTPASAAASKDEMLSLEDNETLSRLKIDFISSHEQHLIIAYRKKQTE

[7] = molecular target: T6, GATA1 (recombinant, pull-down) (Arabidopsis thaliana, UniProt Q8LAU9 1-274)
T6 sequence (looked up): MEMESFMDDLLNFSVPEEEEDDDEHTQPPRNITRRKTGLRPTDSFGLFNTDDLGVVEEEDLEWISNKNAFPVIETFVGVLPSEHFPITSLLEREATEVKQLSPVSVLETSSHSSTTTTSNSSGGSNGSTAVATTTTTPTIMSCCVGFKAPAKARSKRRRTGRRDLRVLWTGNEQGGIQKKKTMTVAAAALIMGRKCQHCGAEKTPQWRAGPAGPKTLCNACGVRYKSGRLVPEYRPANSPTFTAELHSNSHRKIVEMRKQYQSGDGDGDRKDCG

[8] = molecular target: T7, AL4 (recombinant, pull-down) (Arabidopsis thaliana, UniProt O81488 1-255)
T7 sequence (looked up): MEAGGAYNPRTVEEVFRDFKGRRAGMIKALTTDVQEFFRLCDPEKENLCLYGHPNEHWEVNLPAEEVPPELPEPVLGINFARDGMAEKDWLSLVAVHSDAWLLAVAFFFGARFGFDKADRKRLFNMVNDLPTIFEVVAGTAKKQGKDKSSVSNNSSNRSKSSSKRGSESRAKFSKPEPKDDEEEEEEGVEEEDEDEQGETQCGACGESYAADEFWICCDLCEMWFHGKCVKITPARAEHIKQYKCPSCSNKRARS

[9] = molecular target: T8, MINU2-3 (C-terminal domain of the MAS catalytic enzyme MINU2, 677-1,064 aa) (Arabidopsis thaliana, UniProt F4K128 677-1064)
T8 sequence (looked up): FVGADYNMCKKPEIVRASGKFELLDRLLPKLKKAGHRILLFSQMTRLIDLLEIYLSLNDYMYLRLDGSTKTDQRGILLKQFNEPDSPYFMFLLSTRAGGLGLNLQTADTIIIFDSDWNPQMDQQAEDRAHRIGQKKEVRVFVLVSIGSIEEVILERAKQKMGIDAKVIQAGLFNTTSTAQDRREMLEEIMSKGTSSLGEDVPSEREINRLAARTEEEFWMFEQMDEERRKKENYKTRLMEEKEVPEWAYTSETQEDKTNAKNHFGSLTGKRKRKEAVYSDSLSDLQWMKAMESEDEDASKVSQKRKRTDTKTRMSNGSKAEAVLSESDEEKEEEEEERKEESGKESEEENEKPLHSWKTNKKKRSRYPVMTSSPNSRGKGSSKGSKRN

binding result [1]: binds | binding result [2]: binds | binding result [3]: binds | binding result [4]: binds | binding result [5]: binds | binding result [6]: binds | binding result [7]: binds | binding result [8]: binds | binding result [9]: binds
B1: AL2 (recombinant, pull-down) (natural protein, Arabidopsis thaliana, UniProt Q9SRM4 1-246, looked up)
chain: MAAAAVSSNPRTVEEIFKDYSARRAALLRALTKDVDDFYSQCDPEKENLCLYGHPNESWEVNLPAEEVPPELPEPALGINFARDGMQRKDWLSLVAVHSDCWLLSVSFYFGARLNRNERKRLFSLINDLPTLFDVVTGRKAMKDNKPSSDSGSKSRNGTKRSIDGQTKSSTPKLMEESYEEEEEEDEHGDTLCGSCGGHYTNEEFWICCDVCERWYHGKCVKITPAKAESIKQYKCPPCCAKKGRQ
